In paper PMC2706832 (Protein expression and purification, 2009):
Like-named read-outs stand apart in the source and are kept apart here. One block for each binder: values may come before it. fluorescein‑5‑maleimide = fluorescein-5-maleimide

Tests used:
[1] = molecular target: T1, wild-type CCR1 expressed on HEK293 cells (human, UniProt P32246 1-355); experiment: cell-based or functional assay
T1 sequence (looked up): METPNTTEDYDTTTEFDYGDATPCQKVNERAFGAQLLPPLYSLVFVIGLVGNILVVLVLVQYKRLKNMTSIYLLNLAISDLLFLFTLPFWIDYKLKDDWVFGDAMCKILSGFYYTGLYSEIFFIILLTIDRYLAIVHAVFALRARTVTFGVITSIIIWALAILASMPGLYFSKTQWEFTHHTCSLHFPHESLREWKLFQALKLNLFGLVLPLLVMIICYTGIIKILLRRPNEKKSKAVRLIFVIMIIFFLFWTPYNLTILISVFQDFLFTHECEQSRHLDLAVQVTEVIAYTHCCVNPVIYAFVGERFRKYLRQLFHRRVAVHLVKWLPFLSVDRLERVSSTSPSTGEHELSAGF

[2] = molecular target: T1, wild-type CCR1 expressed on HEK293 cells; experiment: radioligand binding
[3] = molecular target: T2, CCR1 solubilized from HEK293 membranes and purified in detergent/lipid micelles (human, UniProt P32246 1-355); experiment: fluorescence polarisation
T2 sequence (looked up): T1 sequence (looked up)

[4] = molecular target: T2, CCR1 solubilized from HEK293 membranes …; experiment: fluorescence polarisation; remark: listed apart in the source
[5] = molecular target: T2, CCR1 solubilized from HEK293 membranes …; experiment: fluorescence polarisation; remark: listed apart in the source
[6] = molecular target: T2, CCR1 solubilized from HEK293 membranes …; experiment: fluorescence polarisation; remark: listed apart in the source
[7] = molecular target: T2, CCR1 solubilized from HEK293 membranes …; experiment: fluorescence polarisation; remark: listed apart in the source

EC50 of calcium mobilization in CCR1-transfected HEK293 cells (FLIPR Calcium 4) [1]: 8 nM
B1: CCL7 (ligand)
chain: not shown

IC50 [2]: 0.9 nM
B2: wild-type CCL3 (ligand, UniProt P10147 24-92, looked up)
chain: SLAADTPTACCFSYTSRQIPQNFIADYFETSSQCSKPGVIFLTKRSRQVCADPSEEWVQKYVSDLELSA

Kd [3]: 35 nM
Kd [4]: > 1000 nM
Kd [5]: > 1000 nM
Kd [6]: > 1000 nM
Kd [7]: 21 nM
B3: CCL14-fluorescein (ligand)
chain: GPYHPSECCFTYTTYKIPRQRIMDYYETNSQCSKPGIVFITKRGHSVCTNPSDKWVQDYIKDMKENC(fluorescein‑5‑maleimide)
